Measurements from the RNAGym collection of RNA variant scans (doi:10.1101/gr.219683.116).

B1: mRNA-splicing (parent)
chain: AGUUGCUGCUGGGAGCUCCAGCACAGUGAAAUGGACAGAAGGGCAGAGCAA

Variants of: B1
Experiment: exon inclusion enrichment index; higher = more inclusion; WT1 exon 5 minigene, HEK293

Variant	exon inclusion enrichment index
AGUUGCUGCUGGGAGCUCCAGCACAGUAAAAUGGACAGAAGGGCAGAGCAA [G28A]	0.0138
AGUUAGGGAUGGGAGCUCCAGCACAGUGAAAUGGACAGAAUCGCAGAGCAA [G5A C6G U7G C9A G41U G42C]	0.00698
AGUUCACACAGGGAGCUCCAGCACAGUGGAAUGGACAGAAGGGCAGAGCAA [G5C C6A U7C G8A U10A A29G]	0.202
AGUUCGCGCCGGGAGCUCCAGCACAGUGUUAUGGACAGAAGGGCAGAGCAA [G5C C6G U7C U10C A29U A30U]	1.81
ACAUCUUCUCGGGAGCUCCAGCACAGUGAAAUGGACAGAAGGGCAGAGCAA [G2C U3A G5C C6U G8C C9U U10C]	1.71
AGUUGCUGCUGGGAGCUAUAGCACAGUGAAAUGGACAGAAGGGCAGAGCAA [C18A C19U]	0.121
AGUUACACCCGGGAGCUCCAGCACAGUGAAAUGGACAGAAGGGCAGAGCAA [G5A U7A G8C U10C]	1.42
AGUUGCUACUGGGAGCUCCAGCACAGUGAAAUGGACAGAAGGGCAGAGCAA [G8A]	1.09
AAGUCUUCUCGGGAGCUCCAGCACAGUGAAAUGGACAGAAGGGCAGAGCAA [G2A U3G G5C C6U G8C C9U U10C]	1.42
AGUUCGCGCCGGGAGCUCCAGCACAGUGAAAUGGACAGAAGGGAAGAGCAA [G5C C6G U7C U10C C44A]	4.17
AGUUCACCAAGGGAGCUCCAGCACAGUGAAAUGGACAGAAGGGCAGAGCAA [G5C C6A U7C G8C C9A U10A]	0.741
AGUUCACACAGGGAGCUCCAGCACAGUGACCUGGACAGAAGGGCAGAGCAA [G5C C6A U7C G8A U10A A30C A31C]	0.314
AGCGCUUCUCGGGAGCUCCAGCACAGUGAAAUGGACAGAAGGGCAGAGCAA [U3C U4G G5C C6U G8C C9U U10C]	1.28
AGUUCACACAGGGAGCUCCAGCAGAGUGAAAUGGACAGAAGGGCAGAGCAA [G5C C6A U7C G8A U10A C24G]	0.119
AGUUCUUCUCGGGAGCUCCAGCACAGUGAAAUGGACUAAAGGGCAGAGCAA [G5C C6U G8C C9U U10C A37U G38A]	0.713
AGAUAUAUAUGGGAGCUCCAGCACAGUGAAAUGGACAGAAGGGCAGAGCAA [U3A G5A C6U U7A G8U C9A]	0.265
AGUUAGGGAUGGGAGCUCCAGCACAGUGAAAUGGACAGAAGUACAGAGCAA [G5A C6G U7G C9A G42U G43A]	0.00514
AGUUAUAUAUGGGAGCUUGAGCACAGUGAAAUGGACAGAAGGGCAGAGCAA [G5A C6U U7A G8U C9A C18U C19G]	0.0036
AGUUCACACAGGGAGCUCCAGCACAGUGAAAUGAGCAGAAGGGCAGAGCAA [G5C C6A U7C G8A U10A G34A A35G]	0.0257
AGUUGCUGCUGGGAGCUCCAGCCUAGUGAAAUGGACAGAAGGGCAGAGCAA [A23C C24U]	0.256
AGUUUCUUUUGGGAGCUCCAGCACAGUGAAAUGGACAGAAGGGGGGAGCAA [G5U G8U C9U C44G A45G]	0.0217
AGUUCACACAGGGAGCUCCAGCACAGUGAAGGGGACAGAAGGGCAGAGCAA [G5C C6A U7C G8A U10A A31G U32G]	0.0429
AGUUGACGACGGGAGCUCCAGCACAGUGAAAGUGACAGAAGGGCAGAGCAA [C6A U7C C9A U10C U32G G33U]	1.91
AGUUUCUUUUGGGAGCUCCAGCACAGAUAAAUGGACAGAAGGGCAGAGCAA [G5U G8U C9U U27A G28U]	0.0328
AGUUGUUGCUGGGAGCUCCAGCACAGUGAAAUGGACAGAAGGGCAGAGCAA [C6U]	0.0511
AGUUCACACAGGGAGACCCAGCACAGUGAAAUGGACAGAAGGGCAGAGCAA [G5C C6A U7C G8A U10A C16A U17C]	0.0679

Variant	exon inclusion enrichment index
AGUUGCUGCUGGGAGCUCCAGCACAGUUCAAUGGACAGAAGGGCAGAGCAA [G28U A29C]	0.0665
AGUUCGCGCCGGGAGCUCCAGCACAGUGAAAUGGACAGAAGUGCAGAGCAA [G5C C6G U7C U10C G42U]	4.02
AGUUAUAUUCGGGAGCUCCAGCACAGUGAAAUGGACAGAAGGGCAGAGCAA [G5A C6U U7A G8U C9U U10C]	0.453
AGUUCUUCUCGGGAGCUCCAGCACUUUGAAAUGGACAGAAGGGCAGAGCAA [G5C C6U G8C C9U U10C A25U G26U]	1.7
AGUUAUAUAUGGGCCCUCCAGCACAGUGAAAUGGACAGAAGGGCAGAGCAA [G5A C6U U7A G8U C9A A14C G15C]	0.0124
AGUUCUUCAAGGGAGCUCCAGCACAGUGAAAUGGACAGAAGGGCAGAGCAA [G5C C6U G8C C9A U10A]	1.21
AGUUGACGACGGGAGCUCCAGCACAGUGAAAUGGACUUAAGGGCAGAGCAA [C6A U7C C9A U10C A37U G38U]	1.27
AGUUAUAGUUGGGAGCUCCAGCACAGUGAAAUGGACAGAAGGGCAGAGCAA [G5A C6U U7A C9U]	0.0151
AGUUGACGACGGGAGCAUCAGCACAGUGAAAUGGACAGAAGGGCAGAGCAA [C6A U7C C9A U10C U17A C18U]	2.9
AGUUGACGACGGGAGGCCCAGCACAGUGAAAUGGACAGAAGGGCAGAGCAA [C6A U7C C9A U10C C16G U17C]	1.82
AGUAUUUCUCGGGAGCUCCAGCACAGUGAAAUGGACAGAAGGGCAGAGCAA [U4A G5U C6U G8C C9U U10C]	0.723
AGUUGAUCUCGGGAGCUCCAGCACAGUGAAAUGGACAGAAGGGCAGAGCAA [C6A G8C C9U U10C]	1.43
AGUUCGCGCCGGGAGCUCCAGCACAGUGAAAUGGGGAGAAGGGCAGAGCAA [G5C C6G U7C U10C A35G C36G]	0.751
AGUUAGGGAUGGGAGCUCCAGCGCAGUGAAAUGGACAGAAGGGCAGAGCAA [G5A C6G U7G C9A A23G]	0.00235
AGUUACCACCGGGAGCUCCCGCACAGUGAAAUGGACAGAAGGGCAGAGCAA [G5A U7C G8A U10C A20C]	1.81
AGAUGCUGCUGGGAGCUCCAGCACAGUGAAAUGGACAGAAGGGCAGAGCAA [U3A]	0.364
AGUUGACGACCCGAGCUCCAGCACAGUGAAAUGGACAGAAGGGCAGAGCAA [C6A U7C C9A U10C G11C G12C]	2.59
AGUUAGGGAUGGGAGCAUCAGCACAGUGAAAUGGACAGAAGGGCAGAGCAA [G5A C6G U7G C9A U17A C18U]	0.00863
AGUUAGGGAUGGGAGCUCCAGCACAGUGAAAUGGACAGAAGGGCAGCGCAA [G5A C6G U7G C9A A47C]	0.0181
AGUUAUAUAUGGGAGCUCCAGCGAAGUGAAAUGGACAGAAGGGCAGAGCAA [G5A C6U U7A G8U C9A A23G C24A]	0.238
AGUUUCUUUUGGGAGCUGUAGCACAGUGAAAUGGACAGAAGGGCAGAGCAA [G5U G8U C9U C18G C19U]	0.00531
AGUUCACACAGGGUCCUCCAGCACAGUGAAAUGGACAGAAGGGCAGAGCAA [G5C C6A U7C G8A U10A A14U G15C]	0.0301
AGUUCGCGCCGGGAGCUCCAGCCGAGUGAAAUGGACAGAAGGGCAGAGCAA [G5C C6G U7C U10C A23C C24G]	5.29
AGUUCUUCUCGGGAGCUCCAGCACAGUGAAAAAGACAGAAGGGCAGAGCAA [G5C C6U G8C C9U U10C U32A G33A]	0.758
AGUUAUAUAUGGGAGCUCCAGCACAGUGAACAGGACAGAAGGGCAGAGCAA [G5A C6U U7A G8U C9A A31C U32A]	0.0278
